# From the supplement of paper PMC10567573
# B1: RHOBTB2 (parent)
# chain: HHHHGRDFLLRAASFDVCESVDEA
# Variants of: B1
# Experiment: protein stability index of a GFP-peptide fusion (GPS, HEK-293T) (PSI 1-6); higher = more stable
# Conditions: c terminus: a fixed tail appended
# 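Note: lentivirally expressed fusions sorted by FACS into six bins by GFP to DsRed ratio, PSI derived from sequencing read proportions per bin multiplied by bin number.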
row,Variant,protein stability index
1,HHHSGRDFLLRAASFDVCESVDEA,4.15
2,HHHTGRDFLLRAASFDVCESVDEA,3.94
3,HHHPGRDFLLRAASFDVCESVDEA,4.59
4,HHHWGRDFLLRAASFDVCESVDEA,2.31
5,HHHRGRDFLLRAASFDVCESVDEA,3.62
6,HHHNGRDFLLRAASFDVCESVDEA,4.15
7,HHHYGRDFLLRAASFDVCESVDEA,3.3
8,HHHQGRDFLLRAASFDVCESVDEA,4.11
9,HHHVGRDFLLRAASFDVCESVDEA,4.02
10,HHHHGRDALLRAASFDVCESVDEA,5.04
11,HHHHGRDPLLRAASFDVCESVDEA,5.21
12,HHHHGRDVLLRAASFDVCESVDEA,4.66
13,HHHHGRDDLLRAASFDVCESVDEA,5.15
14,HHHHGRDWLLRAASFDVCESVDEA,3.28
15,HHHHGRDYLLRAASFDVCESVDEA,3.57
16,HHHHGRDCLLRAASFDVCESVDEA,4.74
17,HHHHGRDTLLRAASFDVCESVDEA,4.28
18,HHHHGRDNLLRAASFDVCESVDEA,5.33
19,HHHHGRDLLLRAASFDVCESVDEA,4.45
20,HHHHGRDGLLRAASFDVCESVDEA,4.74
21,HHHHGRDSLLRAASFDVCESVDEA,4.37
22,HHHHGRDRLLRAASFDVCESVDEA,4.74
23,HHHHGRDELLRAASFDVCESVDEA,4.89
24,HHHHGRDMLLRAASFDVCESVDEA,4.86

row,Variant,protein stability index
1,HHHHGRDKLLRAASFDVCESVDEA,4.61
2,HHHHGRDHLLRAASFDVCESVDEA,5.06
3,HHHHGRDQLLRAASFDVCESVDEA,5.04
4,HHHHGRDILLRAASFDVCESVDEA,4.19
5,HHHHGRDFALRAASFDVCESVDEA,4.98
6,HHHHGRDFQLRAASFDVCESVDEA,5.09
7,HHHHGRDFELRAASFDVCESVDEA,4.89
8,HHHHGRDFVLRAASFDVCESVDEA,4.33
9,HHHHGRDFGLRAASFDVCESVDEA,4.6
10,HHHHGRDFHLRAASFDVCESVDEA,5.1
11,HHHHGRDFILRAASFDVCESVDEA,4.06
12,HHHHGRDFMLRAASFDVCESVDEA,4.41
13,HHHHGRDFSLRAASFDVCESVDEA,4.03
14,HHHHGRDFFLRAASFDVCESVDEA,3.2
15,HHHHGRDFKLRAASFDVCESVDEA,4.35
16,HHHHGRDFDLRAASFDVCESVDEA,5.28
17,HHHHGRDFRLRAASFDVCESVDEA,4.3
18,HHHHGRDFCLRAASFDVCESVDEA,4.48
19,HHHHGRDFTLRAASFDVCESVDEA,4.53
20,HHHHGRDFYLRAASFDVCESVDEA,3.54
21,HHHHGRDFPLRAASFDVCESVDEA,4.81
22,HHHHGRDFNLRAASFDVCESVDEA,5.06
23,HHHHMRDFLLRAASFDVCESVDEA,3.42
24,HHHHSRDFLLRAASFDVCESVDEA,4.61

row,Variant,protein stability index
1,HHHHVRDFLLRAASFDVCESVDEA,3.37
2,HHHHHRDFLLRAASFDVCESVDEA,4.34
3,HHHHARDFLLRAASFDVCESVDEA,3.83
4,HHHHWRDFLLRAASFDVCESVDEA,2.21
5,HHHHDRDFLLRAASFDVCESVDEA,4.86
6,HHHHNRDFLLRAASFDVCESVDEA,3.95
7,HHHHERDFLLRAASFDVCESVDEA,4.42
8,HHHHTRDFLLRAASFDVCESVDEA,4.15
9,HHHHLRDFLLRAASFDVCESVDEA,2.6
10,HHHHIRDFLLRAASFDVCESVDEA,3.27
11,HHHHKRDFLLRAASFDVCESVDEA,4.2
12,HHHHRRDFLLRAASFDVCESVDEA,4.3
13,HHHHQRDFLLRAASFDVCESVDEA,4.21
14,HHHHYRDFLLRAASFDVCESVDEA,2.33
15,HHHHCRDFLLRAASFDVCESVDEA,2.63
16,HHHHFRDFLLRAASFDVCESVDEA,1.6
17,HHHHPRDFLLRAASFDVCESVDEA,4.44
18,HHHHGADFLLRAASFDVCESVDEA,4.33
19,HHHHGHDFLLRAASFDVCESVDEA,4.41
20,HHHHGGDFLLRAASFDVCESVDEA,4.7
21,HHHHGYDFLLRAASFDVCESVDEA,3
22,HHHHGQDFLLRAASFDVCESVDEA,4.37
23,HHHHGTDFLLRAASFDVCESVDEA,4.2
24,HHHHGSDFLLRAASFDVCESVDEA,3.85

row,Variant,protein stability index
1,HHHHGPDFLLRAASFDVCESVDEA,4.19
2,HHHHGDDFLLRAASFDVCESVDEA,4.61
3,HHHHGCDFLLRAASFDVCESVDEA,3.51
4,HHHHGWDFLLRAASFDVCESVDEA,2.55
5,HHHHGIDFLLRAASFDVCESVDEA,2.12
6,HHHHGFDFLLRAASFDVCESVDEA,2.8
7,HHHHGVDFLLRAASFDVCESVDEA,2.63
8,HHHHGMDFLLRAASFDVCESVDEA,3.49
9,HHHHGKDFLLRAASFDVCESVDEA,4.5
10,HHHHGNDFLLRAASFDVCESVDEA,4.59
11,HHHHGLDFLLRAASFDVCESVDEA,3.81
12,HHHHGEDFLLRAASFDVCESVDEA,5.07
13,HHHHGRDFLLRAESFDVCESVDEA,4.38
14,HHHHGRDFLLRAPSFDVCESVDEA,4.66
15,HHHHGRDFLLRAGSFDVCESVDEA,4.33
16,HHHHGRDFLLRAVSFDVCESVDEA,3.14
17,HHHHGRDFLLRAISFDVCESVDEA,3.12
18,HHHHGRDFLLRASSFDVCESVDEA,3.96
19,HHHHGRDFLLRACSFDVCESVDEA,1.87
20,HHHHGRDFLLRAQSFDVCESVDEA,3.84
21,HHHHGRDFLLRAFSFDVCESVDEA,1.92
22,HHHHGRDFLLRADSFDVCESVDEA,4.51
23,HHHHGRDFLLRATSFDVCESVDEA,3.49
24,HHHHGRDFLLRANSFDVCESVDEA,4.38

row,Variant,protein stability index
1,HHHHGRDFLLRAMSFDVCESVDEA,2.49
2,HHHHGRDFLLRAKSFDVCESVDEA,4.09
3,HHHHGRDFLLRAYSFDVCESVDEA,2.87
4,HHHHGRDFLLRAWSFDVCESVDEA,2.45
5,HHHHGRDFLLRAHSFDVCESVDEA,3.75
6,HHHHGRDFLLRALSFDVCESVDEA,3.2
7,HHHHGRDFLLRARSFDVCESVDEA,3.73
8,HHHHGRDFLLRRASFDVCESVDEA,4.37
9,HHHHGRDFLLRNASFDVCESVDEA,3.82
10,HHHHGRDFLLRVASFDVCESVDEA,3.03
11,HHHHGRDFLLRYASFDVCESVDEA,2.08
12,HHHHGRDFLLRDASFDVCESVDEA,4.55
13,HHHHGRDFLLRFASFDVCESVDEA,1.92
14,HHHHGRDFLLRMASFDVCESVDEA,2.96
15,HHHHGRDFLLRLASFDVCESVDEA,3.14
16,HHHHGRDFLLRWASFDVCESVDEA,2.67
17,HHHHGRDFLLRQASFDVCESVDEA,3.73
18,HHHHGRDFLLRKASFDVCESVDEA,4.26
19,HHHHGRDFLLRTASFDVCESVDEA,1.66
20,HHHHGRDFLLREASFDVCESVDEA,5.13
21,HHHHGRDFLLRSASFDVCESVDEA,3.29
22,HHHHGRDFLLRHASFDVCESVDEA,2.94
23,HHHHGRDFLLRPASFDVCESVDEA,4.52
24,HHHHGRDFLLRIASFDVCESVDEA,2.54

row,Variant,protein stability index
1,HHHHGRDFLLRGASFDVCESVDEA,4.25
2,HHHHGRDFLLRCASFDVCESVDEA,2.4
3,HHHHGRDFLLTAASFDVCESVDEA,3.72
4,HHHHGRDFLLDAASFDVCESVDEA,5.18
5,HHHHGRDFLLWAASFDVCESVDEA,1.44
6,HHHHGRDFLLYAASFDVCESVDEA,2.39
7,HHHHGRDFLLEAASFDVCESVDEA,5.3
8,HHHHGRDFLLKAASFDVCESVDEA,4.17
9,HHHHGRDFLLGAASFDVCESVDEA,4.43
10,HHHHGRDFLLLAASFDVCESVDEA,2.35
11,HHHHGRDFLLFAASFDVCESVDEA,1.67
12,HHHHGRDFLLAAASFDVCESVDEA,3.29
13,HHHHGRDFLLMAASFDVCESVDEA,2.38
14,HHHHGRDFLLIAASFDVCESVDEA,2.41
15,HHHHGRDFLLSAASFDVCESVDEA,3.85
16,HHHHGRDFLLNAASFDVCESVDEA,3.87
17,HHHHGRDFLLCAASFDVCESVDEA,2.63
18,HHHHGRDFLLVAASFDVCESVDEA,2.85
19,HHHHGRDFLLQAASFDVCESVDEA,3.94
20,HHHHGRDFLLPAASFDVCESVDEA,4.26
21,HHHHGRDFLLHAASFDVCESVDEA,4.06
22,HHHHGRDFLHRAASFDVCESVDEA,4.69
23,HHHHGRDFLVRAASFDVCESVDEA,4.06
24,HHHHGRDFLMRAASFDVCESVDEA,3.64

row,Variant,protein stability index
1,HHHHGRDFLWRAASFDVCESVDEA,2.34
2,HHHHGRDFLFRAASFDVCESVDEA,2.96
3,HHHHGRDFLCRAASFDVCESVDEA,4.2
4,HHHHGRDFLYRAASFDVCESVDEA,3.9
5,HHHHGRDFLERAASFDVCESVDEA,5.02
6,HHHHGRDFLIRAASFDVCESVDEA,4.21
7,HHHHGRDFLTRAASFDVCESVDEA,4.8
8,HHHHGRDFLPRAASFDVCESVDEA,4.18
9,HHHHGRDFLNRAASFDVCESVDEA,5.01
10,HHHHGRDFLARAASFDVCESVDEA,3.94
11,HHHHGRDFLDRAASFDVCESVDEA,5.17
12,HHHHGRDFLSRAASFDVCESVDEA,3.81
13,HHHHGRDFLGRAASFDVCESVDEA,4.29
14,HHHHGRDFLQRAASFDVCESVDEA,4.86
15,HHHHGRDFLKRAASFDVCESVDEA,4.09
16,HHHHGRDFLRRAASFDVCESVDEA,4.55
17,HHHHGRDFLLRAAFFDVCESVDEA,3.03
18,HHHHGRDFLLRAAHFDVCESVDEA,3.57
19,HHHHGRDFLLRAAGFDVCESVDEA,3.15
20,HHHHGRDFLLRAADFDVCESVDEA,4.13
21,HHHHGRDFLLRAAKFDVCESVDEA,3.17
22,HHHHGRDFLLRAAAFDVCESVDEA,3.55
23,HHHHGRDFLLRAACFDVCESVDEA,3.36
24,HHHHGRDFLLRAAIFDVCESVDEA,2.73

row,Variant,protein stability index
1,HHHHGRDFLLRAAEFDVCESVDEA,3.89
2,HHHHGRGFLLRAASFDVCESVDEA,3.34
3,HHHHGRIFLLRAASFDVCESVDEA,1.99
4,HHHHGREFLLRAASFDVCESVDEA,3.8
5,HHHHGRFFLLRAASFDVCESVDEA,2.06
6,HHHHGRQFLLRAASFDVCESVDEA,3.18
7,HHHHGRHFLLRAASFDVCESVDEA,2.34
8,HHHHGRPFLLRAASFDVCESVDEA,3.31
9,HHHHGRVFLLRAASFDVCESVDEA,2.87
10,HHHHGRKFLLRAASFDVCESVDEA,3.85
11,HHHHGRWFLLRAASFDVCESVDEA,2.29
12,HHHHGRYFLLRAASFDVCESVDEA,2.04
13,HHHHGRLFLLRAASFDVCESVDEA,1.82
14,HHHHGRCFLLRAASFDVCESVDEA,1.92
15,HHHHGRNFLLRAASFDVCESVDEA,3.25
16,HHHHGRTFLLRAASFDVCESVDEA,2.92
17,HHHHGRAFLLRAASFDVCESVDEA,2.97
18,HHHHGRSFLLRAASFDVCESVDEA,3.17
19,HHHHGRRFLLRAASFDVCESVDEA,3.16
20,HHHHGRMFLLRAASFDVCESVDEA,1.79
